The text below walks through data of patent US20230272047A1 (University of Washington, published 2023).

In assay [1] the target is T1, human transferrin receptor 1 ectodomain, biotinylated (human, UniProt P02786 89-760, biotinylated in vitro (Avidity kit) at the C-terminal Avi tag).
T1 construct: extracellular domain; Expressed as IgK-sFLAG-His-Sen-TEV-TfR1-his-Avi in the Daedalus system; The N-terminal expression tag was cleaved with TEV; In yeast display it was detected with streptavidin-phycoerythrin; also called hTfR; hTfR ectodomain; not shown: C-terminal his-Avi tag (printed 'his-Avin')
T1 sequence (P02786 89-760): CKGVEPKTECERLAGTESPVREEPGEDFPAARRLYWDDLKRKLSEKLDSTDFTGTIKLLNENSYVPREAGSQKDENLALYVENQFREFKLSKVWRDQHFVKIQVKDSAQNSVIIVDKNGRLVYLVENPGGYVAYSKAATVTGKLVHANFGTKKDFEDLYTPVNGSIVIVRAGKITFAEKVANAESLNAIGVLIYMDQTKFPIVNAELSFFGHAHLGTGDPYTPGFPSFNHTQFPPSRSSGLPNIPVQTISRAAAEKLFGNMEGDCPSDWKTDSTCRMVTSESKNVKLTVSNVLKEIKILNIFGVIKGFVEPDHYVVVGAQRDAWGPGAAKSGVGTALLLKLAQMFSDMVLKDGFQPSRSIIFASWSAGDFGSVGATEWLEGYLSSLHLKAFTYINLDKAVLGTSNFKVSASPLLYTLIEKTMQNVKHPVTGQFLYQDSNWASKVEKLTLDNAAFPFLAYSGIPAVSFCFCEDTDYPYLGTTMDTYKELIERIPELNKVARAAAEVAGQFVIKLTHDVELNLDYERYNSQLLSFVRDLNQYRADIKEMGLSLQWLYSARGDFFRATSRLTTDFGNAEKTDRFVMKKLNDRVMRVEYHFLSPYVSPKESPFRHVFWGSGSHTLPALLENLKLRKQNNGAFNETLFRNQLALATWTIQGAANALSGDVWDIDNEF
The assay can be described thus: single concentration biolayer interferometry (1 µM design).

Assay [2] deals with T1, human transferrin receptor 1 …. The assay can be described thus: biolayer interferometry, biotinylated hTfR on streptavidin biosensors.
Assay [3] shares this target. Briefly: single concentration biolayer interferometry, biotinylated hTfR on streptavidin biosensors.

B1: 3DS10 (designed binder)
chain: TEEERLREEVKRVAQRAEEEGANEEEIAQILLLALNAAVVVVVESEEQAERVAQYIREVVPEALVIVYNNFVVIFVESDEAARRAWEAAERAQ
notes: Expressed in E. coli; the N-terminal His tag was cleaved with TEV
In the case of B1, the binding result in assay [1] is “binds”.

B2: 3DS11 (designed binder)
chain: DLEERVRKAVNEAQEEAKRNNLDENEAALEAALRLGVVVLVVVDSEEQAERVAKYVHKLVPSVRVVIYNNLVFFHVDTDEEARRVYEAAERAQ
notes: as for B1
For the molecule B2, the binding result in assay [1] was “binds”.

B3: 3DS2 (designed binder)
chain: TEDEEYEERVREALEEAKKKNEHNEELVAQIALLILGAVVVIVAESEEAAKRAAQYVRERVPNAKVYVFDNFVFVHAESREDQEAAWRAAQEAM
notes: as for B1
For B3, the binding result in assay [1] is given as “binds”.

B4: 3DS23 (designed binder)
chain: DEEEEEKEEIRRQLDEARERGVSEEEAAIEVAQNFNFIVVVVVDSEEEAERVAEYVRREVPRVHIVIVQNVVFFRVDSDEDARRVWELAQKAQ
notes: as for B1
Take B4: the binding result in assay [1] is “binds”.

B5: 3DS6 (designed binder)
chain: DKEDELRELAKELVREYEKRGVSEEEIALLVALAANFAVVIVFDNEEQAERAAKYIKKKLPSAVIVIFNNFVFVYVDSREDERIAWELAQEAQ
notes: as for B1
Turning to B5, the binding result in assay [1] is “binds”.

B6: 2DS25 (purified from E. coli) (designed binder)
chain: DEEEIQKAIEELLRKGVSEEEAAIIIAQRFNVAVVVVVQDERQAKHISEYIRRYIPEADVILFANIVVIKVETEELRKRVWEAAQKAY
notes: Expressed in E. coli with an N-terminal histidine tag and a TEV site; Eluted as a monomer on SEC
On to B6, for which, in assay [2], the binding result is “binds”.

B7: 2DS25_KO (W81A/Q85A) (designed binder)
chain: DEEEIQKAIEELLRKGVSEEEAAIIIAQRFNVAVVVVVQDERQAKHISEYIRRYIPEADVILFANIVVIKVETEELRKRVAEAAAKAY
Regarding B7, the binding result in assay [3] is listed as “no binding”.
